Measured values taken from patent publication US20260159603A1 (BEAM THERAPEUTICS, published 2026).

Legend:
[1] = target: T1, biotinylated cynomolgus CD5-HIS (cynomolgus); experiment: BLI (Octet), biotinylated CD5-HIS on streptavidin pins, periplasmic extract, off-rate
T1 construct: Loaded onto streptavidin Octet pins; also called CynoCD5; SA-Cyno CD5

[2] = target: T2, biotinylated human CD5-HIS (human, UniProt P06127 25-372, biotinylated); experiment: as above
T2 construct: Loaded onto streptavidin Octet pins; also called huCD5; SA-human CD5; not shown: HIS tag
T2 sequence (looked up): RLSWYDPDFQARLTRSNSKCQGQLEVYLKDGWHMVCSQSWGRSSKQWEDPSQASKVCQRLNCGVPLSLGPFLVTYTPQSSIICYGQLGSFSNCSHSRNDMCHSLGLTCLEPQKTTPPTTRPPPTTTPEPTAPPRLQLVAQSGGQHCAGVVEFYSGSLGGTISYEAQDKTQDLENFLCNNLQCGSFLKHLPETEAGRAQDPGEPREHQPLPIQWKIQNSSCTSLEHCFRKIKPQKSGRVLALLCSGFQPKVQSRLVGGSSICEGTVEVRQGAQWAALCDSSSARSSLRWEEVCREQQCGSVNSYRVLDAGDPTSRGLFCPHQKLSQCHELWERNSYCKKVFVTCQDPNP

[3] = target: T1, biotinylated cynomolgus CD5-HIS; experiment: BLI (Octet), biotinylated CD5-HIS on streptavidin pins
[4] = target: T2, biotinylated human CD5-HIS; experiment: as above
[5] = target: T2, biotinylated human CD5-HIS; experiment: BLI; KD on human CD5 divided by KD on cynomolgus CD5
[6] = target: T3, cynomolgus CD5 on transfected HEK293T cells (cynomolgus (Table 8B); rhesus macaque …); experiment: flow cytometry, periplasmic extract on transfected HEK293T cells
T3 construct: whole, on cells; also called Cynomolgus CD5 Cells; rhesus macaque (Macaca mulatta) CD5

[7] = target: T4, human CD5 on transfected HEK293T cells (human, UniProt P06127 25-495); experiment: as above
T4 construct: whole, on cells; also called huCD5; Human CD5 Cells
T4 sequence (looked up): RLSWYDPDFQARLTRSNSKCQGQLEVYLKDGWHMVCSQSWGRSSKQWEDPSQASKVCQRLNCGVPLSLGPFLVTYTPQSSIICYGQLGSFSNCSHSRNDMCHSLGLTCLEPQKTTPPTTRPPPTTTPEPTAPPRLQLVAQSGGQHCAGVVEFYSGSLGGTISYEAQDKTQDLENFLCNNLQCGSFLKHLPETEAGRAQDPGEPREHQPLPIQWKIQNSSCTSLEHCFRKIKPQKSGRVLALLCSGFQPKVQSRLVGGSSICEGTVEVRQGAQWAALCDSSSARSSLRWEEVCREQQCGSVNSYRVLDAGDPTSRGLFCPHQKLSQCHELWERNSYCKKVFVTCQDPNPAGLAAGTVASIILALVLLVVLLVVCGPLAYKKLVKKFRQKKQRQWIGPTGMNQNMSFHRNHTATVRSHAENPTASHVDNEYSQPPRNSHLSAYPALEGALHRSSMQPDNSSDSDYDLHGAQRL

huCD5-BTN = target: T5, huCD5-BTN (human, UniProt P06127 25-372, limits assumed, biotinylated (BTN)); experiment: BLI in tandem, huCD5-BTN saturated with UCHT2 first; competitor UCHT2
T5 construct: Loaded onto streptavidin biosensors; also called human CD5
T5 sequence (looked up): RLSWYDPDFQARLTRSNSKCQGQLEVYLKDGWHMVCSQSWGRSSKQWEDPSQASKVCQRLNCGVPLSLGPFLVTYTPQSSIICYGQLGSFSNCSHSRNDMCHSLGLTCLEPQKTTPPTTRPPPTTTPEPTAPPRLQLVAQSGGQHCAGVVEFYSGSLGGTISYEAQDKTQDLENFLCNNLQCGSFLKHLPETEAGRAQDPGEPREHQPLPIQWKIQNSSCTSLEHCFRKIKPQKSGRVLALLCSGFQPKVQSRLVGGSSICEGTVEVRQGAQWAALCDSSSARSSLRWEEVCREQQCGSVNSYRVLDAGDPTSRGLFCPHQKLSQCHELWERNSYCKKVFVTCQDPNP

B1: ABTx330 (VHH)
VHH: EVQLVESGGGLVQPGGSLRLSCAASGFPFSSSFMSWVRQAPGKGLEWVSTIYSDGSTYYADSVKGRFTISRDNAKKTAYLQMNSLKAEDTAVYYCATVTGSIRGQGTQVTVSS
notes: VHH in periplasmic extract of the phage display clone; also called clone 563; not shown: c-myc tag of the phagemid construct (detected with anti-c-myc 9E10)
- koff [1]: 0.0102 s⁻¹
- koff [2]: 0.00231 s⁻¹
- Kd [3]: 1.4 nM
- koff [3]: 0.00014 s⁻¹
- kon [3]: 110000 M⁻¹ s⁻¹
- Kd [4]: 0.65 nM
- koff [4]: 8.3e-05 s⁻¹
- kon [4]: 130000 M⁻¹ s⁻¹
- Hu/Cyno KD [5]: 0.5
- percent of cells showing binding [6]: 72%
- percent of cells showing binding [7]: 78.6%

B2: ABTx317 (VHH)
VHH: QVQLVESGGGLVQAGASLRLSCAASGRTTYNMGWFRHAPGKDREFVAAIDLYGRATRYANSVKGRFTISRDNAKNTVYLQMNSLKPEDTAVYYCAADTSLPLGVLTKSQRMYGAWGQGTQVTVSS
notes: VHH in periplasmic extract of the phage display clone; also called clone 280; not shown: c-myc tag of the phagemid construct (detected with anti-c-myc 9E10)
- koff [1]: 0.118 s⁻¹
- koff [2]: 0.0131 s⁻¹
- Kd [3]: 2.4 nM
- koff [3]: 0.0002 s⁻¹
- kon [3]: 84000 M⁻¹ s⁻¹
- Kd [4]: 2.1 nM
- koff [4]: 0.00015 s⁻¹
- kon [4]: 71000 M⁻¹ s⁻¹
- Hu/Cyno KD [5]: 0.9
- percent of cells showing binding [6]: 79.5%
- percent of cells showing binding [7]: 82.8%

B3: ABTx331 (VHH)
VHH: QVQLVESGGGLVQAGASLRLSCAASGRTTYNMGWFRHAPGKDREFVAAIDLYGRATRYANSVKGRFTISRDNAKNTVYLQMNSLKPEDTAVYYCAADTSLPLGVLTESQRLYGAWGQGTQVTVSS
notes: VHH in periplasmic extract of the phage display clone; also called clone 225; not shown: c-myc tag of the phagemid construct (detected with anti-c-myc 9E10)
- koff [1]: 0.0557 s⁻¹
- koff [2]: 0.0145 s⁻¹
- Kd [3]: 2.2 nM
- koff [3]: 0.00016 s⁻¹
- kon [3]: 71000 M⁻¹ s⁻¹
- Kd [4]: 1.3 nM
- koff [4]: 0.00012 s⁻¹
- kon [4]: 94000 M⁻¹ s⁻¹
- Hu/Cyno KD [5]: 0.6
- percent of cells showing binding [6]: 71.8%
- percent of cells showing binding [7]: 89.2%

B4: ABTx315 (VHH)
VHH: QVQLVESGGGLVQAGGSLRLSCAASGRTFGTYTMGWFRQAPGREREFVAAISWSAGRTYYADSMKGRFTISRDNAKNTVYLQMNSLKPEDTAVYYCAADPWTSDSDYDRLTMYDYWGQGTQVTVSS
notes: VHH in periplasmic extract of the phage display clone; also called clone 502; not shown: c-myc tag of the phagemid construct (detected with anti-c-myc 9E10)
- koff [1]: 0.000345 s⁻¹
- koff [2]: 0.000566 s⁻¹
- Kd [3]: 0.22 nM
- koff [3]: 5.8e-05 s⁻¹
- kon [3]: 260000 M⁻¹ s⁻¹
- Kd [4]: 0.4 nM
- koff [4]: 6.3e-05 s⁻¹
- kon [4]: 160000 M⁻¹ s⁻¹
- Hu/Cyno KD [5]: 1.8
- percent of cells showing binding [6]: 79.1%
- percent of cells showing binding [7]: 86.4%

B5: ABTx315 VHH-Fc (Fc fusion)
chain: QVQLVESGGGLVQAGGSLRLSCAASGRTFGTYTMGWFRQAPGREREFVAAISWSAGRTYYADSMKGRFTISRDNAKNTVYLQMNSLKPEDTAVYYCAADPWTSDSDYDRLTMYDYWGQGTQVTVSS
notes: VHH as Fc fusion protein; order of the parts and the Fc are not described; also called anti-CD5 VHH-Fc; not shown: Fc (detected with anti-Human Fc)
- response (huCD5-BTN): 0.498 Response Units

B6: ABTx316 VHH-Fc (Fc fusion)
chain: QVQLVESGGGLVQAGGSLRLSCAASGGTVSSYAMGWFRQAPGKEREFVAVISWSGGRTYYADSVKGRFTISRDNAKNTVNLQMNSLKPEDTAVYYCAADPWTSDSDYERLTMYDYWGQGTQVTVSS
notes: as for B5
- response (huCD5-BTN): 0.394 Response Units

B7: ABTx317 VHH-Fc (Fc fusion)
chain: QVQLVESGGGLVQAGASLRLSCAASGRTTYNMGWFRHAPGKDREFVAAIDLYGRATRYANSVKGRFTISRDNAKNTVYLQMNSLKPEDTAVYYCAADTSLPLGVLTKSQRMYGAWGQGTQVTVSS
notes: as for B5
- response (huCD5-BTN): 1.24 Response Units

B8: ABTx331 VHH-Fc (Fc fusion)
chain: QVQLVESGGGLVQAGASLRLSCAASGRTTYNMGWFRHAPGKDREFVAAIDLYGRATRYANSVKGRFTISRDNAKNTVYLQMNSLKPEDTAVYYCAADTSLPLGVLTESQRLYGAWGQGTQVTVSS
notes: as for B5
- response (huCD5-BTN): 0.232 Response Units

B9: ABTx318 VHH-Fc (Fc fusion)
chain: QVQLQESGGGSVQAGGSLRLSCAASGRAFSAYAMGWFRQAPGKEREFVAAINWNGDTALRWNGFATRYADSVKGRFTISRVIAKNTVNLQMNSLKPEDTAVYYCAADTVVSGSYYLAARAEDYEYWGQGTQVTVSS
notes: as for B5
- response (huCD5-BTN): 1.15 Response Units

B10: ABTx319 VHH-Fc (Fc fusion)
chain: QVQLVESGGGLVQPGGSLRLSCAASGFTFSMYSMSWVRQAPGKRLEWVSSISTGARDTAYADSVKGRFTISRDNADNTLYLHMNNLKPEDTAVYYCANGDLRYGPDGYDYRGQGTQVTVSS
notes: as for B5
- response (huCD5-BTN): 1.17 Response Units

B11: ABTx320 VHH-Fc (Fc fusion)
chain: QVQLVESGGGLVQAGGSLRLSCAASGPAFSSSGMGWFRQAPGKAREFVASMDWTGGSTYYGDSVKGRFTVSRDNAKMTVHLQMNSLRPEDTAVYYCARGTSGVAAVNLRGFFSWGPGTQVTVSS
notes: as for B5
- response (huCD5-BTN): 0.325 Response Units

B12: ABTx321 VHH-Fc (Fc fusion)
chain: QLQLVESGGGLVQPGESLRLSCVVSGDIFSFVGWGWYRQAPGKQREVVAQISTGGLTNYADSVKGRFAISRDNAKRTVYLQMNSLKFEDTAVYYCNVPGHPWGQGTQVTVSS
notes: as for B5
- response (huCD5-BTN): 0.0713 Response Units

B13: ABTx328 VHH-Fc (Fc fusion)
chain: QVQLVESGGGLVQPGESLRLSCVVSGDIFSFIGWGWYRQAPGKQRELVAQINTGGLTDYADSVKGRFTISRDNAKRTVYLQMNSLKFEDTAVYYCNFPGHSWGQGTQVTVSS
notes: as for B5
- response (huCD5-BTN): 0.153 Response Units

B14: ABTx322 VHH-Fc (Fc fusion)
chain: QLQLVESGGGLVQPGGSLRLSCAASGSDFLVDATTWFRQAPGNQREFVAIMDIGGVTEYADSVKGRFTISRDHTKNTVYLQMNSLKVEDTAVYYCNTRGLWGQGTLVTVSS
notes: as for B5
- response (huCD5-BTN): -0.137 Response Units

B15: ABTx323 VHH-Fc (Fc fusion)
chain: QVQLQESGGGLVQAGGSLRLSCATSGITSSINVIGWYRQAPGKQRELVALVNSGGQTHYADSVKGRFTISRDNAKNTVFLQMNSLKPEDTAEYYCHGRYGIDNYWGEGTQVTVSS
notes: as for B5
- response (huCD5-BTN): 0.317 Response Units

B16: ABTx324 VHH-Fc (Fc fusion)
chain: QVQLVESGGGLVQPGGSVRLSCATSGSIFSTNVMGWYRQAPGKEREFVALIRGGGSTHYADSVKGRFIISRENAKTTVYLQMNGLKPEDTAVYYCVIWLGSPGAMSDYWGQGTQVTVSS
notes: as for B5
- response (huCD5-BTN): 0.663 Response Units

B17: ABTx325 VHH-Fc (Fc fusion)
chain: QVQLVESGGGLVQPGGSLRLSCAASGSDASTNNMAWYRQAPGKEREFVALIRTGGSTHVADSMKGRFTISRENAKNTVYLQMNSLKPEDTAVYYCVIWTGSPGALSDYWGQGTQVTVSS
notes: as for B5
- response (huCD5-BTN): 0.396 Response Units

B18: ABTx326 VHH-Fc (Fc fusion)
chain: QVQLVESGGGLVQPGGSLRLSCAASGRTFINYAAGWFRQAPGKEREFVARISRSGGRTDYADSVKGRFTISRDNAKSTVYLQMNSLRPEDTAVYYCAEATVWEFTDGADQYDYWGQGTQVTVSS
notes: as for B5
- response (huCD5-BTN): 0.0571 Response Units

B19: ABTx327 VHH-Fc (Fc fusion)
chain: QVQLVESGGGLVQPGGSLRLSCVASGGTFSTYGMGWFRQAPGKEREFVAVITGSGVGTQYADSVKDRFTISRENAKNTVYLQMNTLKLEDTAVYYCVSGHRPGWAVIRADAYEYWGQGTQVTVSS
notes: as for B5
- response (huCD5-BTN): 0.025 Response Units

B20: ABTx329 VHH-Fc (Fc fusion)
chain: QLQLVESGGGLVQPGESLRLSCAASGFSFSRVGMNWYRQAPGKERELVASISSDGSRTNYAHFVKGRFTISRDNVKNMVYLQMNSLKLEDTAVYYCNVPGNSWGQGTQVTVSS
notes: as for B5
- response (huCD5-BTN): 0.24 Response Units

B21: ABTx330 VHH-Fc (Fc fusion)
chain: EVQLVESGGGLVQPGGSLRLSCAASGFPFSSSFMSWVRQAPGKGLEWVSTIYSDGSTYYADSVKGRFTISRDNAKKTAYLQMNSLKAEDTAVYYCATVTGSIRGQGTQVTVSS
notes: as for B5
- response (huCD5-BTN): 0.367 Response Units
